In patent US20240408238A1:

Biological target: Nme2Cas9 expressed from plasmid in HEK293T cells (human-codon-optimized, NLSs and 3xHA tag) (Neisseria meningitidis strain De11444)
Assay: cell-based or functional assay

| Substance | genome editing in HEK293T cells at varied ratios of Acr plasmid to Cas9 plasmid: ratio giving full inhibition (mass ratio Acr plasmid:Nme2Cas9 plasmid) |
| --- | --- |
| AcrIIC1Nme | 2 |
| AcrIIC4Hpa | 1 |
